# According to patent US10617759B2, “Light-stimulated release of cargo from oligonucleotides” (Trustees of Boston University, priority 2016, dated 2020):
# Test: Protein caging and uncaging, particle counting of TEM images
# Assay type: physicochemical
# Conditions: low power light irradiation for 60 seconds (302 nm)
# Method: BSA was directly caged through the reaction of our crosslinker with the surface amino groups on the protein. Streptavidin was indirectly caged by attaching biotin-amine to the nanocage cavity and then subsequently mixing with the protein. […] None were seen tethered to the cage exterior.
# TEM samples were prepared by placing 3 μL of sample solution onto a carbon coated grid (FCF400-Cu, Electron Microscopy Sciences) which was previously charged using a plasma etcher (30 seconds of irradiation). After 2 minutes, the solution was wicked away from the grid with filter paper (Whatman 50 hardened). The grid was immediately treated with stain for 30 seconds and excess solution was wicked away. The remaining solution on the grid was evaporated at room temperate prior to imaging. TEM images were acquired with an FEI Tecnai Spirit Transmission Electron Microscope operated at 80 kV. Saturated uranyl formate (in ddH2O prepared freshly before usage) was used for protein caging experiments and 2% uranyl acetate (diluted with ddH2O from 4%, Electron Microscopy Sciences) was used for all other samples.
# Protein containing nanocages were created following the general cavity functionalization protocol. 5 equivalents per oligo handle were used. […] The extent of uncaging was analyzed using particle counting of the TEM images. The entirety of each TEM image was analyzed to avoid bias.
substance,measurement,value
streptavidin,nanocages containing protein after light irradiation,9%
same,uncaging efficiency,87%
